Test results reported in publication PMC10786891, “Massively parallel profiling of RNA-targeting CRISPR-Cas13d”.
Numbering of substitutions follows the chain as printed. Numbers in names are those of the source.

T1: EsCas13d, nuclease-dead (Eubacterium siraeum, UniProt B0MS50, R295A;H300A;R849A;H854A)
T1 sequence: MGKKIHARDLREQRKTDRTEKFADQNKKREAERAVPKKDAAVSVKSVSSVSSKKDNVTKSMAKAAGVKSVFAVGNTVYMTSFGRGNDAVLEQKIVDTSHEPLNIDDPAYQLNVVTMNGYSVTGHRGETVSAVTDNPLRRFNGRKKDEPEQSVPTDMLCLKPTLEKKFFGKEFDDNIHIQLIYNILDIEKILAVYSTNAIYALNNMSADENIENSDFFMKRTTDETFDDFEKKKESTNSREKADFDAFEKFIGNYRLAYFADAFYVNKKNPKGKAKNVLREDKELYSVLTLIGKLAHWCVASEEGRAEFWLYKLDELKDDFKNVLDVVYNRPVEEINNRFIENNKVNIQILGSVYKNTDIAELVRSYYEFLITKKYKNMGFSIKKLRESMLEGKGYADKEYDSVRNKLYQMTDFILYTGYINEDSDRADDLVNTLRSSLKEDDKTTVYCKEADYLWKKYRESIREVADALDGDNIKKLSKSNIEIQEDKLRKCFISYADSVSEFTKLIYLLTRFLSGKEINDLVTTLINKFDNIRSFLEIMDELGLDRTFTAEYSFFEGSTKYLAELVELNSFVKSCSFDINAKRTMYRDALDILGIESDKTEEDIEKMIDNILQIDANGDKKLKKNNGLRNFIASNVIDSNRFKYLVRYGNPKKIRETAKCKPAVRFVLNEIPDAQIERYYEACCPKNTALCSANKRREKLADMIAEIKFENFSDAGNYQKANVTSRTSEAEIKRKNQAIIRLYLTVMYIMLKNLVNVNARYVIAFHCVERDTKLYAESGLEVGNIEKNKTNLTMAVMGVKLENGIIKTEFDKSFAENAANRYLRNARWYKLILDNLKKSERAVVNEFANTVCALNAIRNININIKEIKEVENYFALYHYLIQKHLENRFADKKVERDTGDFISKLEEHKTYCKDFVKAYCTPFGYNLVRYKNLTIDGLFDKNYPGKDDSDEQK

B1: target 1 insC 3' of 3,insA 3' of 2 (mixed)
RNA 1: CACCCGUGCAAAAAUGCAGGGGUCUAAAACUGAGCGGAUAACCUCUCUAUGG
RNA 2: GGGAAUGGAUCCACAUCUACGAAUUCGUACCAUAGAGAGGUUAUCCGCUCCAACCGAGAUCGGAAGAGCACACGU
B2: target 1 insU 3' of 21,insG 3' of 7 (mixed)
RNA 1: B1 RNA 1
RNA 2: GGGAAUGGAUCCACAUCUACGAAUUCGUACCUAUAGAGAGGUUAUCGCGCUCACCGAGAUCGGAAGAGCACACGU
B3: target 1 C2U,G13C (mixed)
RNA 1: B1 RNA 1
RNA 2: GGGAAUGGAUCCACAUCUACGAAUUCGUACCAUAGAGACGUUAUCCGCUUACCGAGAUCGGAAGAGCACACGU
B4: target 1 insA 3' of 17,insU 3' of 12 (mixed)
RNA 1: B1 RNA 1
RNA 2: B2 RNA 2 with U32A, A33U, U34A, A35G, G36A, A44U, U45A, C46U, G47C
B5: target 1 insU 3' of 4,insG 3' of 2 (mixed)
RNA 1: B1 RNA 1
RNA 2: B1 RNA 2 with C50U, A52G
B6: target 1 insC 3' of 17,insU 3' of 15 (mixed)
RNA 1: B1 RNA 1
RNA 2: GGGAAUGGAUCCACAUCUACGAAUUCGUACCAUAGCAGUAGGUUAUCCGCUCACCGAGAUCGGAAGAGCACACGU
B7: target 1 insA 3' of 19,insG 3' of 7 (mixed)
RNA 1: B1 RNA 1
RNA 2: B2 RNA 2 with U32A, A33U, U34A
B8: target 1 del7,del15 (mixed)
RNA 1: B1 RNA 1
RNA 2: GGGAAUGGAUCCACAUCUACGAAUUCGUACCAUAGAAGGUUAUCGCUCACCGAGAUCGGAAGAGCACACGU
B9: target 1 insC 3' of 9,insG 3' of 9 (mixed)
RNA 1: B1 RNA 1
RNA 2: B1 RNA 2 with U44C, C45G, C46U, G47C, U49G, C51U, A52C
B10: target 1 insC 3' of 12,insG 3' of 7 (mixed)
RNA 1: B1 RNA 1
RNA 2: B1 RNA 2 with U41C, A43U, U44A, C45U, U49G, C51U, A52C
B11: target 1 insA 3' of 8,insA 3' of 5 (mixed)
RNA 1: B1 RNA 1
RNA 2: B1 RNA 2 with C45A, G47C, C48G, U49A, C51U, A52C
B12: target 1 insU 3' of 14,insU 3' of 14 (mixed)
RNA 1: B1 RNA 1
RNA 2: B6 RNA 2 with C36A, A37G, G38A, A40U
B13: target 1 C6A,A16C (mixed)
RNA 1: B1 RNA 1
RNA 2: B3 RNA 2 with A36C, C39G, C46A, U50C
B14: target 1 insC 3' of 20,insA 3' of 7 (mixed)
RNA 1: B1 RNA 1
RNA 2: B2 RNA 2 with U32A, A33C, G47A
B15: target 1 U3C,U8A (mixed)
RNA 1: B1 RNA 1
RNA 2: B3 RNA 2 with C39G, U44A, U49C, U50C
B16: target 1 C2U,G17A (mixed)
RNA 1: B1 RNA 1
RNA 2: B3 RNA 2 with G35A, C39G
B17: target 1 complement block 5-7 (mixed)
RNA 1: B1 RNA 1
RNA 2: B3 RNA 2 with C39G, C45G, C46G, G47C, U50C
B18: target 1 G12U,C21A (mixed)
RNA 1: B1 RNA 1
RNA 2: B3 RNA 2 with C31A, C39G, G40U, U50C
B19: target 1 insA 3' of 22,insU 3' of 14 (mixed)
RNA 1: B1 RNA 1
RNA 2: B6 RNA 2 with C31A, A32C, U33A, A34U, G35A, C36G, U39A, A40U
B20: target 1 insG 3' of 21,insG 3' of 7 (mixed)
RNA 1: B1 RNA 1
RNA 2: B2 RNA 2 with U32G
B21: target 1 C7U,A20C (mixed)
RNA 1: B1 RNA 1
RNA 2: B3 RNA 2 with A32C, C39G, C45U, U50C
B22: target 1 C2G,A20C (mixed)
RNA 1: B1 RNA 1
RNA 2: B3 RNA 2 with A32C, C39G, U50G
B23: target 1 C4G,A14C (mixed)
RNA 1: B1 RNA 1
RNA 2: B3 RNA 2 with A38C, C39G, C48G, U50C
B24: target 1 G5C,G12C (mixed)
RNA 1: B1 RNA 1
RNA 2: B3 RNA 2 with C39G, G40C, G47C, U50C
B25: target 1 C7G,A16U (mixed)
RNA 1: B1 RNA 1
RNA 2: B3 RNA 2 with A36U, C39G, C45G, U50C
B26: target 1 G5C,U10G (mixed)
RNA 1: B1 RNA 1
RNA 2: B3 RNA 2 with C39G, U42G, G47C, U50C
B27: target 1 C4G,U11G (mixed)
RNA 1: B1 RNA 1
RNA 2: B3 RNA 2 with C39G, U41G, C48G, U50C
B28: target 1 insU 3' of 13,insG 3' of 9 (mixed)
RNA 1: B1 RNA 1
RNA 2: B6 RNA 2 with C36A, A37G, G38A, U39G, A40U, G42U, U44A, A45G
B29: target 1 A18U,A20U (mixed)
RNA 1: B1 RNA 1
RNA 2: B3 RNA 2 with A32U, A34U, C39G, U50C
B30: target 1 insU 3' of 13,insG 3' of 11 (mixed)
RNA 1: B1 RNA 1
RNA 2: B6 RNA 2 with C36A, A37G, G38A, U39G, A40U, G42U, U43G
B31: target 1 U19G,C21A (mixed)
RNA 1: B1 RNA 1
RNA 2: B3 RNA 2 with C31A, U33G, C39G, U50C
B32: target 1 A9G,G15C (mixed)
RNA 1: B1 RNA 1
RNA 2: B3 RNA 2 with G37C, C39G, A43G, U50C
B33: target 1 G5A,U10C (mixed)
RNA 1: B1 RNA 1
RNA 2: B3 RNA 2 with C39G, U42C, G47A, U50C
B34: target 1 insC 3' of 19,insU 3' of 4 (mixed)
RNA 1: B1 RNA 1
RNA 2: B2 RNA 2 with U32A, A33U, U34C, G47C, C48G, G49C, C50U

molecular target: T1, EsCas13d, nuclease-dead; assay: crRNA (strand 1, pre-loaded); Mg2+; 40 mM Tris-HCl pH 7.5, 150 mM NaCl, 6 mM MgCl2, 1 mM DTT, 0.1% Tween-20, 0.2 mg/ml BSA; 25 C; 10 min per concentration, then washed; conditions: tags: His6-TwinStrep-SUMO cleaved; N-terminal SNAP kept (SNAP-Surface 488); label: 3' end held by stalled T7 RNA polymerase

Question: How did the Kd turn out when B1 was run?
Answer: 13.6 ± 1.2 nM

Question: For B2, which Kd is on record?
Answer: 23.6 ± 2 nM

Question: Which Kd does the source give for B3 here?
Answer: 44 ± 7 nM

Question: For B4, which Kd is on record?
Answer: 10.4 ± 0.6 nM

Question: B5 was tested. Which Kd did it give?
Answer: 7.4 ± 0.5 nM

Question: Which Kd does the source give for B6 here?
Answer: 19.1 ± 1 nM

Question: With B7 as the binder, how does the Kd read?
Answer: 16.3 ± 1.4 nM

Question: B8 was tested. Which Kd did it give?
Answer: 17.3 ± 0.7 nM

Question: How did the Kd turn out when B9 was run?
Answer: 18.5 ± 1.2 nM

Question: With B10 as the binder, how does the Kd read?
Answer: 16.2 ± 0.9 nM

Question: With B11 as the binder, how does the Kd read?
Answer: 18.8 ± 1.5 nM

Question: With B12 as the binder, how does the Kd read?
Answer: 21 ± 1.3 nM

Question: B13 was tested. Which Kd did it give?
Answer: 35.4 ± 2.2 nM

Question: B14 was tested. Which Kd did it give?
Answer: 7.49 ± 0.35 nM

Question: Which Kd does the source give for B15 here?
Answer: 18.7 ± 1.5 nM

Question: Which Kd does the source give for B16 here?
Answer: 34.4 ± 2.7 nM

Question: Which Kd does the source give for B17 here?
Answer: 32.9 ± 1.5 nM

Question: For B18, which Kd is on record?
Answer: 27.4 ± 2.3 nM

Question: For B19, which Kd is on record?
Answer: 41 ± 20 nM

Question: How did the Kd turn out when B20 was run?
Answer: 68 ± 5 nM

Question: B21 was tested. Which Kd did it give?
Answer: 37 ± 8 nM

Question: How did the Kd turn out when B22 was run?
Answer: 21.8 ± 1.1 nM

Question: How did the Kd turn out when B23 was run?
Answer: 14.1 ± 2.8 nM

Question: B24 was tested. Which Kd did it give?
Answer: 30.4 ± 1.8 nM

Question: With B25 as the binder, how does the Kd read?
Answer: 53 ± 4 nM

Question: How did the Kd turn out when B26 was run?
Answer: 17.5 ± 0.9 nM

Question: With B27 as the binder, how does the Kd read?
Answer: 5.73 ± 0.29 nM

Question: Which Kd does the source give for B28 here?
Answer: 24.8 ± 3.2 nM

Question: Which Kd does the source give for B29 here?
Answer: 95 ± 17 nM

Question: B30 was tested. Which Kd did it give?
Answer: 39 ± 8 nM

Question: How did the Kd turn out when B31 was run?
Answer: 56 ± 7 nM

Question: With B32 as the binder, how does the Kd read?
Answer: 67 ± 20 nM

Question: Which Kd does the source give for B33 here?
Answer: 47 ± 5 nM

Question: B34 was tested. Which Kd did it give?
Answer: 32.2 ± 3.2 nM
